Reference: patent publication US20210403552A1 (SHANGHAI GENBASE BIOTECHNOLOGY, published 2021)

Columns and labels:
human CLDN18.2 [1] = target: human CLDN18.2 (human); assay: cell-based or functional assay
human CLDN18.2 [2] = target: human CLDN18.2 (human); assay: cell-based or functional assay; remark: listed apart in the source
human CLDN18.2 [3] = target: human CLDN18.2 (human); assay: cell-based or functional assay; remark: listed apart in the source
human CLDN18.2 [4] = target: T1, human CLDN18.2 (human); assay: imaging cytometry (% fluorescent cells), HEK293T-hCLDN18.2 cells
T1 construct: over-expressed on HEK293T or OCUM-1 cells by lentivirus; KATO-III and NUGC4 gastric cancer cells express it naturally; also called hCLDN18.2; hCLDNA18.2
Method: (§1) 10,000 cells were plated in 100 μL of DMEM containing 10% FBS per well in a flat-bottomed 96-well plate. After the cells adhered or were settled to the bottom of the wells overnight, the supernatant was removed on the next day. 3-Fold gradient dilution of antibody was performed by diluting 1/3 of the total volume (i.e., 100 μL) in 200 μL of DMEM. 100 μL of the diluted antibody (the supernatants of fused clones or subclones was used in the screening) was added to each well of the cell plate, 100 μL of DMEM was added to the corresponding negative control well, and incubation was carried out for 1 hour at room temperature. After removing the supernatant, 100 μL of secondary antibody (5 μg/mL, diluted in DMEM) was added to each well, and incubated at room temperature for 0.5 hours. The supernatant was removed after staining, followed by washing with PBS once. 100 μL of PBS was added to each well, and then reading was carried out on the cytometer.
A full-field scanning cytometer (Nexcelom, Celigo® Image Cytometer) was used to measure the readings of the experimental plate. During the measurement, high-speed scanning imaging of the cells in the well was simultaneously performed in the green fluorescent channel corresponding to the secondary antibody and in the bright field channel. The cells that bound the antibody were counted in the image obtained from the green fluorescent channel under the parameters set in accordance with the morphology and fluorescence intensity of the fluorescently labeled cells, and the adhered cells were counted in the image obtained from the bright field channel under the parameters set in accordance with the morphology of the cells. […] The data analysis was performed using GraphPad.

human CLDN18.1 = target: T2, human CLDN18.1 (human, UniProt P56856 1-261); assay: imaging cytometry, CHOS-hCLDN18.1 cells
T2 construct: over-expressed on HEK293T or CHOS cells by lentivirus; also called hCLDN18.1
T2 sequence (P56856 whole entry): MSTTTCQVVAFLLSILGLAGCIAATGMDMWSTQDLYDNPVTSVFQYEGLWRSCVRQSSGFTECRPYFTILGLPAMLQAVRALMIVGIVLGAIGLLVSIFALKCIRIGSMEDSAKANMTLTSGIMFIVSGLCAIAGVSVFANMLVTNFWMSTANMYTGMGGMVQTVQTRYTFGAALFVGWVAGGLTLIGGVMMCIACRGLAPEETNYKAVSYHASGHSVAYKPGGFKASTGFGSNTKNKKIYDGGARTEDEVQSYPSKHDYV
From the text: (§2) HEK293T-hCLDN18.2 and OCUM-1-hCLDN18.2 expressing human CLDN18.2 (hCLDN18.2), or HEK293T-mCLDN18.2 expressing mouse CLDN18.2 (mCLDN18.2) and the corresponding negative control cell line HEK293T were used; or HEK293T-hCLDN18.1 and CHOS-hCLDN18.1 expressing human CLDN18.1 (hCLDN18.1) were used. DyLight488 goat anti-mouse IgG (Abcam, Catalog No. ab97015) or DyLight488 goat anti-human IgG (Abcam, Catalog No. ab97003) was used as secondary antibody. Binding curves were generated by using the following method.
as §1
(§3) A full-field scanning cytometer (Nexcelom, Celigo® Image Cytometer) was used to measure the readings of the experimental plate. During the measurement, high-speed scanning imaging of the cells in the well was simultaneously performed in the green fluorescent channel corresponding to the secondary antibody and in the bright field channel. The cells that bound the antibody were counted in the image obtained from the green fluorescent channel under the parameters set in accordance with the morphology and fluorescence intensity of the fluorescently labeled cells, and the adhered cells were counted in the image obtained from the bright field channel under the parameters set in accordance with the morphology of the cells.

human CLDN18.2 [5] = target: T1, human CLDN18.2; assay: imaging cytometry (% fluorescent cells), OCUM1-hCLDN18.2 cells
From the text: as §2, §1, §3

human CLDN18.2 [6] = target: T1, human CLDN18.2; assay: imaging cytometry (% fluorescent cells), HEK293-hCLDN18.2 cells
From the text: as §2, §1, §3

mouse CLDN18.2 = target: T3, mouse CLDN18.2 (mouse, UniProt P56857 10-264); assay: imaging cytometry (% fluorescent cells), HEK293-mCLDN18.2 cells
T3 construct: over-expressed on HEK293T cells by lentivirus; also called mCLDN18.2; murine CLDN18.2
T3 chain: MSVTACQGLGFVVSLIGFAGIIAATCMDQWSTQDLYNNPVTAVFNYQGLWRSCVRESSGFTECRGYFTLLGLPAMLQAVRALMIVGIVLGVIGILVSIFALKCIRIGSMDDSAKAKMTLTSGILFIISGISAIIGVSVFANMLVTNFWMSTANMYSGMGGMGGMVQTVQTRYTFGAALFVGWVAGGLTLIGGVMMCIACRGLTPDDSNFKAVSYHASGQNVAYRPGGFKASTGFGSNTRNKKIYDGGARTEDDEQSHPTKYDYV
From the text: as §2, §1, §3

Row | Binder | ADCC EC50, HEK293T-hCLDN18.2 target cells, human PBMC effectors (human CLDN18.2 [1]) [µg/mL] | CDC EC50, HEK293T-hCLDN18.2 target cells, human serum (human CLDN18.2 [2]) [µg/mL] | Internalization percentage (%), HEK293T-hCLDN18.2 cells, flow cytometry, 10 µg/mL antibody (human CLDN18.2 [3]) [%] | EC50 (human CLDN18.2 [4]) [µg/mL] | binding result (human CLDN18.1) | EC50 (human CLDN18.2 [5]) [µg/mL] | EC50 (human CLDN18.2 [6]) [µg/mL] | EC50 (mouse CLDN18.2) [µg/mL]
1 | 5F9-chIgG1 (antibody, V domains shown, human-mouse chimeric antibody, human IgG1/kappa constant regions) VH: QVQLQQSGAELVKPGASVKLSCKASGYTFTSYWMHWVKQRPGQGLEWIGMIHPNSVSTNYNEKFKSKATLTVDKSSSTAYMQLSSLTSEDSAVYYCAVYFDYWGQGTTLTVSS VL: DIQVTQSPSSLSASLGERVSLTCRASQDIGSSLNWLQQEPDGTIKRLIYASSSLNSGVPKRFSVSRSGSDYSLTISSLESEDFVDYYCLQYATSPPTFGGGTKLEIKR | 0.0197 | 5.25 | 9.3 | 0.283 | – | – | – | –
2 | 27B5-chIgG1 (antibody, V domains shown, human-mouse chimeric antibody, human IgG1/kappa constant regions) VH: QVQLQQPGTELVKPGASVKLSCKASGYTFTSYWMHWVKQRPGQGLEWIGNIHPSNGGSNHNEKFKSKATLTVDKSSSTAYMQLSSLTSEDSAVYYCAPIYYGNSLAYWGHGTLVTVSA VL: DVVMTQSPSSLTVTAGEKVTMSCKSSQSLLNSGNQKNYLTWYQQKPGQPPKLLLYWASTRESGVPDRFTGSGSGTDFTLTISSVQAEDLAVYYCQNSYFYPFTFGSGTKLEIKR | 0.0249 | 5.17 | -2.2 | 0.108 | – | – | – | –
3 | 37B1-chIgG1 (antibody, V domains shown, human-mouse chimeric antibody, human IgG1/kappa constant regions) VH: EVRLQQSGPELVKPGASVKMSCKASGYSFTDYNMHWVKQSHGKSPEWVGYINPNKGGTGYNQKFKGKATLTVNKSSSTANMELRSLTSEDSAVYYCARIWYGNSFAYWGQGTLVTVSA VL: DVVMTQSPSSLTVTAGEKVTMSCKSSQSLLNSGNQKNYLTWYQQKPGQPPKLLIYWASTRESGVPDRFTGSGSGTDFTLTISSVQAEDLAVYFCQNDYFYPFTFGSGTKLEIKR | 0.0126 | 1.93 | -3.2 | 0.031 | – | – | – | –
4 | 44A8-chIgG1 (antibody, V domains shown, human-mouse chimeric antibody, human IgG1/kappa constant regions) VH: EVRLQQSGPELVKPGASVKMSCKASGYTFTDYNMHWVKQSHGKSLEWIGYINPKNGGIRYNQKFTGKATLTVNKSSSTAYMELRSLTSEDSAVYYCARGGYYGNTLDNWGQGTSVTVSS VL: DIVMTQSPSSLTLTAGEKVTMSCKSSQSLLNSGNQKNYLTWYQQKPGQPPKLLIYWASTSESGVPDRFTGSGSGTDFTLTISSVQAEDLAIYYCQNAYFYPWTFGGGTKLEIKR | 0.0156 | 2.4 | 2.5 | 0.069 | – | – | – | –
5 | 1D10-chIgG1 (antibody, V domains shown) VH: QVQLQQPGAELVKPGASVKLSCKASGYTFTSYWMHWVKQRPGQGLEWIGMIYPNSGSINYNEKFKNKATLTVDKSSSTAYMQLSSLTSEDSAVYFCSVYFDYWGQGTTLTVSS VL: DIQGTQSPSSLSASLGERVSLTCRASQDIGSSLNWLQQEPDGTIKRLIYATSSLDSGVPKRFSVSRSGSDYSLTISSLESEDFVDYYCLQYASSPPTFGGGTKLEIKR | – | – | 28.7 | – | – | – | – | –
6 | 44F7 (antibody, V domains shown, murine monoclonal antibody purified from hybridoma culture supernatant) VH: QVQLQQSGAELVRPGASVKMSCKASGYTFTSYNMHWVKQAPRQGLEWIGTIYPGNGDTSYNQKFKGKATLTVDKSSSTAYMQLSSLTSEDSAVYFCARGGYYGNSLDYWGQGTTLTVSS VL: DIQMTQSPSSLTVTAGEKVTMSCKSSQSLLNSGNQKNYLTWYQQKPGQPPKLLIYWASTRESGVPDRFTGSGSGTDFTLTISSVQAEDLAVYYCQNAYYYPFTFGSGTKLEIK | – | – | – | – | no binding | 0.092 | 0.028 | 0.026
7 | 2F12 (antibody, V domains shown, murine monoclonal antibody purified from hybridoma culture supernatant) VH: EVQLVESGGGLVKPGGSLKLSCAASGFTFSDYGIHWVRQAPEKGLEWVAYISSGSSTIYYADTVKGRFTISRDNAKNTLFLQMTSLRSEDTAIYYCAKWDRGNCFDYWGQGTTLTVSS VL: DIVLTQSPSSLTVTAGEKVTMSCKSSQSLLNSGNQKKYLTWYQQKVGQPPKLLIYWASIRECGVPDRFTGSGSGTDFILTISSVQAEDLAVYYCQNAYSYPLTFGAGTKLELK | – | – | – | – | no binding | 0.186 | 0.041 | 0.036
